Test [1] deals with T1, cynomolgus monkey E-selectin, cell-surface expressed (cynomolgus monkey, UniProt P16581 22-610 (human entry)).
T1 construct: also called CHO-cynomolgus monkey E-selectin cells; cynomolgus monkey CHO-E
T1 chain: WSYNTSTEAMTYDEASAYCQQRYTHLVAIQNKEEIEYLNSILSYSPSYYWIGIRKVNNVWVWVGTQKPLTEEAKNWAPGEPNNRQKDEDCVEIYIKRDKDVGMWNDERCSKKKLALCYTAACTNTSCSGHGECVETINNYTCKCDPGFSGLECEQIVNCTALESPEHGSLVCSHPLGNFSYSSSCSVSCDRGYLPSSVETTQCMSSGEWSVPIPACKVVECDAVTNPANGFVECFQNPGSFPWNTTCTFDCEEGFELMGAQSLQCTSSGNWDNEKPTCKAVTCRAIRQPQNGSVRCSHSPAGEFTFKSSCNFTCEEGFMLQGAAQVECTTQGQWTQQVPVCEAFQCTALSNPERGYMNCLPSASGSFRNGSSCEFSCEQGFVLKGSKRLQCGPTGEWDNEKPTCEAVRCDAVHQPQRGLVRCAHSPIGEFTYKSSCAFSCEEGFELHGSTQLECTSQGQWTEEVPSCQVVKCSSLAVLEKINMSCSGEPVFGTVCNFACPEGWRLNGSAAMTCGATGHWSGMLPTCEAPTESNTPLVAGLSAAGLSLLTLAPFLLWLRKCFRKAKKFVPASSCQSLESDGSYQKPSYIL
Briefly: flow cytometry, CHO cells. How it is done:
Cells were maintained in growth medium at 37° C., 5% CO₂ and 95% air in a humidified incubator. Methotrexate or Zeocin were removed from the medium prior to culture for experiments. CHO-E selectin cells were detached from T-150 flasks using citric saline (135 mM KCl, 15 mM sodium citrate) and immediately re-calcified with the addition of CaCl₂) to the detached cells to a final concentration of 1 mM. Growth media was immediately added to the detached cells, then centrifuged at 300×g for 5 minutes at room temperature to pellet the cells. Cells were plated into 96-well round-bottom plates in cold CHO buffer consisting of phosphate buffered saline (PBS), pH 7.4 containing bovine serum albumin (BSA; Sigma-Aldrich) at final concentration of 1%, calcium chloride at final concentration of 1 mM, and sodium azide at a final concentration of 0.1%, for 5 minutes on wet ice. After incubation, the cells were centrifuged at 300×g for 2 minutes at 4° C. to remove the buffer.
After incubation, the antibodies were removed and the cells were washed three times by centrifugation at 300×g for 1 minute at 4° C. and resuspended in cold CHO buffer. The washed cells were resuspended and incubated for 30 minutes on wet ice with 100 μL of 1:1000 dilution of APC-conjugated AffiniPure F(ab′)₂ Fragment Goat Anti-human IgG, Fcγ (Jackson Immunoresearch). The cells were washed three or four times prior to resuspension in CHO buffer for flow cytometric analysis. A Becton Dickinson LSRFortessa instrument using 640 nanometer laser line was used to acquire cell fluorescence data. Geometric mean fluorescence of cells was analyzed by FlowJo software package (FlowJo, LLC) and plotted against antibody concentration. The estimated EC₅₀ values were calculated using nonlinear regression analysis in the GraphPad Prism suite.
On the technique in general: A flow cytometer gives signals particle by particle.

Test [2] has as its target T2, human E-selectin, cell-surface expressed (human, UniProt P16581 22-610).
T2 construct: also called CHO-human E-selectin cells; human CHO-E
T2 sequence: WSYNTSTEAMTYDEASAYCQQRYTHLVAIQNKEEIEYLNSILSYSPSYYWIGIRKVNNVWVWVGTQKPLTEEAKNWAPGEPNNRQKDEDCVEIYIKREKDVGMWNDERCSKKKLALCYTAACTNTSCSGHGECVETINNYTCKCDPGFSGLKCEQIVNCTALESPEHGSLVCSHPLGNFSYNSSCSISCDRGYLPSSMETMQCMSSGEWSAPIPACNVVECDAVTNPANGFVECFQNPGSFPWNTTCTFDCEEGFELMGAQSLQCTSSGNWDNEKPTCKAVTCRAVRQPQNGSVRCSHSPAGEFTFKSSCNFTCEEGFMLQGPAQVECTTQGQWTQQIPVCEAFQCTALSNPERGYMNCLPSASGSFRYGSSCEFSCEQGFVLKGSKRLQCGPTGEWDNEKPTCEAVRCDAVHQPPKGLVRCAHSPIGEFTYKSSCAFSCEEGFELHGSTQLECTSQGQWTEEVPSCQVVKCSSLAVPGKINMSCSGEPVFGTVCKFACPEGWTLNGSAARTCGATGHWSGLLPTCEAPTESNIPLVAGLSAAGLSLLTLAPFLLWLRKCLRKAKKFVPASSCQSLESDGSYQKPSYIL
Description: competition ELISA on CHO cells vs sialyl Lewis ligand-PAA-biotin/SA-HRP. As to the method:
(§1) In a static ligand cellular adhesion assay, horse radish peroxidase (HRP) conjugated E-selectin ligand and E-selectin antibodies compete for binding to human or cynomolgus E-selectin expressed on Chinese hamster ovary (CHO) cells. The ability of anti-E-selectin antibodies to neutralize the ligand binding was assessed in a static neutralization assay using a competition enzyme-linked immunosorbent assay (ELISA) to evaluate the neutralization of the sialyl Lewis antigen to Chinese hamster ovary cells (CHO) engineered to express human or cynomolgus monkey E-selectin.
(§2) CHO cells expressing E-selectin were seeded at 12,500 cells per well into a 96 well tissue culture plate and incubated at 37° C., 5% CO₂ for 48 hours to form a confluent monolayer. Plates were subsequently washed twice with 200 μL of calcium magnesium free PBS. Anti-E-selectin antibodies, or an IgG1 isotype control, were added to the assay in the presence of a small synthetic conjugate of biotinylated, sialyl Lewis A polyacrylamide (Carbosynth LLC, OS45446) or sialyl Lewis X polyacrylamide (Glycotech, 01-045) with a streptavidin/horseradish peroxidase (100 μL total) and incubated at 37° C., 5% CO₂ for 2 hours. Plates were then washed twice with 200 μL of calcium magnesium free PBS. Following the incubation, the cells were washed twice with 200 μL of wash buffer containing 2 mM calcium chloride (50 mM TRIS [trisaminomethane], 150 mM sodium chloride; 0.05% polysorbate 20, pH 7.4; 2 mM of calcium chloride). Signal was developed by adding 100 μL of 1-Step Ultra TMB substrate (Thermo Scientific, 34028) and incubating for 30 minutes at room temperature. Reactions were stopped using 2 M of sulfuric acid and absorbance was read at 450 nm (Spectramax M5e). Data was analyzed and graphed using GraphPad Prism software (Version 8.0.2).

For test [3], the target named is T1, cynomolgus monkey E-selectin, …. Described as above. How it is done:
as §1, §2

Residue numbers refer to the chain shown, from its start.

B1: humanized anti-E-selectin antibody 0841 (antibody, human IgG1, kappa, V domains shown)
VH: EVQLVESGGGLVQPGGSLRLSCAASGYNIRSSYMHWVRQAPGKGLEWVARIDPANGNTIYAEKFKIRFTISADNAKNSAYLQMNSLRAEDTAVYYCAMDLYSTSEYWGQGTLVTVSS
VL: DIQMTQSPSSLSASVGDRVTITCKTSQNINRYLNWYQQKPGKAPKLLIYNANSLQTGVPSRFSGSGSGTDFTLTISSLQPEDFATYFCLQDNSWPLTFGQGTKVEIKR
notes: effector-null human IgG1, kappa
Broadly, the EC50 is the concentration needed to bring the measured effect to its halfway point. Usually IC50 stands for the concentration that gives 50% inhibition. The molecule B1 displayed an EC50 in test [1] of 1.54 nM. Further, the IC50 in test [2] is 3.81 nM; in test [3], 1.74 nM.

B2: anti-E-selectin antibody 0164 chimera (antibody, human IgG1, kappa, V domains shown)
VH: EVQLQQSGAEFGKPGTSVKLSCKVSGYNIRSSYMHWVNQRPGKGLEWIGRIDPANGNTIYAEKFKIKAILTADSSSNTAYMQLSQLKSDDTAIYFCAMDLYSTSEYWGQGVMVTVSS
VL: B1 VL with S10F, T22N, P40L, K42E, V58I, G64A, S76N, F83V, Q100S, V104L
notes: rat VH/VL on effector-null human IgG1 and human kappa
In turn, B2 returned an EC50 in test [1] of 1.73 nM. Besides, the results for the IC50 in test [2] and in test [3] were 5.17 nM and 2 nM, respectively.
